Measurements as given in CN1542019A (CHINA ANTIBODY PHARMACY CO LTD, dated 2004).

T1: CD22抗原 (CD22 on Raji human lymphoma cells) (human, UniProt P20273 20-847)
T1 construct: whole, on cells; The assays are on Raji cells; also called Raji人淋巴瘤细胞; Raji细胞
T1 sequence (looked up): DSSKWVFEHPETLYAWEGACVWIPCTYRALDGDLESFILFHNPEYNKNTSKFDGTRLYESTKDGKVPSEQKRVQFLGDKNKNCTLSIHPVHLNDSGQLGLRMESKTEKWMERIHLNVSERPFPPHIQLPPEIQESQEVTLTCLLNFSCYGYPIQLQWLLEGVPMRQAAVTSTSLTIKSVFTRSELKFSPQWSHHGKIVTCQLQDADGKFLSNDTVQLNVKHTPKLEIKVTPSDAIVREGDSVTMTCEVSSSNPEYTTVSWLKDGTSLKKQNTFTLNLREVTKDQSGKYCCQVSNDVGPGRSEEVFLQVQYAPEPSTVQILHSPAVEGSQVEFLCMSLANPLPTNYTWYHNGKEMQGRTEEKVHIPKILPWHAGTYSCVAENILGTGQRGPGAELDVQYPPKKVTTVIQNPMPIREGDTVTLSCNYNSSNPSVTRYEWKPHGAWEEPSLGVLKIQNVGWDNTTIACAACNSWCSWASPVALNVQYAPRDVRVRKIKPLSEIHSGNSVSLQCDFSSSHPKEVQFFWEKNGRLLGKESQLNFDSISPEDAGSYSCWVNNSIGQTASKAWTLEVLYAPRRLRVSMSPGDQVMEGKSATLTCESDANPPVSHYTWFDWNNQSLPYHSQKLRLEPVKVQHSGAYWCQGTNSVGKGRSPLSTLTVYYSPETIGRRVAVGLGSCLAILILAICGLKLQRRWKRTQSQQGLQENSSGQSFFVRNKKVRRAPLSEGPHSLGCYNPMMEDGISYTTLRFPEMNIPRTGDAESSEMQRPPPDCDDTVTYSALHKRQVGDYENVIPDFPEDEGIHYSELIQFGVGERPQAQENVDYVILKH


Legend:
[1] = target: T1, CD22抗原 (CD22 on Raji human lymphoma …); experiment: flow cytometry on Raji human lymphoma cells, four purified batches of different production and storage time
[2] = target: T1, CD22抗原 (CD22 on Raji human lymphoma …); experiment: competitive flow cytometry on Raji cells; unlabelled murine parent antibody as competitor of its FITC conjugate

binding result [1]	binding result [2]	Binder
binds	–	嵌合抗体SM03 (chimeric anti-CD22 antibody SM03, human IgG1/human Kappa, variable regions modified at the N- and C-termini) (antibody, V domains shown, Expressed in SP2/0 cells, purified on Protein A; also called 嵌合单克隆抗体SM03; SM03试产第一批抗体) VH: QVQLQESGGGLVKPGGSLKLSCAASGFAFSIYDMSWVRQWPEKRLEWVAYISSGGGTTYYPDTVKGRFTISRDNAKNTLYLQMSSLKSEDTAMYYCARHSGYGSSYGVLFAYWGQGTLVTVSS VL: DIQLTQTTSSLSASLGDRVTISCRASQDISNYLNWYQQKPDGTVKLLIYYTSILHSGVPSRFSGSGSGTDYSLTISNLEQEDFATYFCQQGNTLPWTFGGGTKLEIKR
–	binds	嵌合抗体SM03的鼠源母抗体 (murine parent antibody of SM03) (antibody, V domains shown, Whole mouse hybridoma antibody (mouse IgG heavy chain, kappa light chain by the cloning primers); also called 鼠源抗体; FITC-鼠源母抗体偶联物) VH: EVQLVESGGGLVKPGGSLKLSCAASGFAFSIYDMSWVRQWPEKRLEWVAYISSGGGTTYYPDTVKGRFTISRDNAKNTLYLQMSSLKSEDTAMYYCARHSGYGSSYGVLFAYWGQGTLVTVSA VL: DIQMTQTTSSLSASLGDRVTISCRASQDISNYLNWYQQKPDGTVKLLIYYTSILHSGVPSRFSGSGSGTDYSLTISNLEQEDFATYFCQQGNTLPWTFGGGTKLEIK
